Publication PMC7042088

Molecular target: fluorescently labelled UDP-peptide bisubstrate conjugate
Assay: fluorescence polarisation; increasing concentrations of OGT titrated against a fixed concentration of the fluorescent probe; 0.1 M Tris/HCl pH 7.5, 0.15 M NaCl, 0.5 mM TCEP, 5% DMSO; 30 min in the dark

Binder	Kd [µM]
O-GlcNAc transferase, truncated wild type (catalytic domain and 3.5 TPR repeats, residues 323-1044) (enzyme) CPTHADSLNNLANIKREQGNIEEAVRLYRKALEVFPEFAAAHSNLASVLQQQGKLQEALMHYKEAIRISPTFADAYSNMGNTLKEMQDVQGALQCYTRAIQINPAFADAHSNLASIHKDSGNIPEAIASYRTALKLKPDFPDAYCNLAHCLQIVCDWTDYDERMKKLVSIVADQLEKNRLPSVHPHHSMLYPLSHGFRKAIAERHGNLCLDKINVLHKPPYEHPKDLKLSDGRLRVGYVSSDFGNHPTSHLMQSIPGMHNPDKFEVFCYALSPDDGTNFRVKVMAEANHFIDLSQIPCNGKAADRIHQDGIHILVNMNGYTKGARNELFALRPAPIQAMWLGYPGTSGALFMDYIITDQETSPAEVAEQYSEKLAYMPHTFFIGDHANMFPHLKKKAVIDFKSNGHIYDNRIVLNGIDLKAFLDSLPDVKIVKMKCPDGGDNADSSNTALNMPVIPMNTIAEAVIEMINRGQIQITINGFSISNGLATTQINNKAATGEEVPRTIIVTTRSQYGLPEDAIVYCNFNQLYKIDPSTLQMWANILKRVPNSVLWLLRFPAVGEPNIQQYAQNMGLPQNRIIFSPVAPKEEHVRRGQLADVCLDTPLCNGHTTGMDVLWAGTPMVTMPGETLASRVAASQLTCLGCLELIAKNRQEYEDIAVKLGTDLEYLKKVRGKVWKQRISSPLFNTKQYTMELERLYLQMWEHYAAGNKPDHMIKPVEVTE	1.6
O-GlcNAc transferase N648Y, truncated (catalytic domain and 3.5 TPR repeats, residues 323-1044) (enzyme) CPTHADSLNNLANIKREQGNIEEAVRLYRKALEVFPEFAAAHSNLASVLQQQGKLQEALMHYKEAIRISPTFADAYSNMGNTLKEMQDVQGALQCYTRAIQINPAFADAHSNLASIHKDSGNIPEAIASYRTALKLKPDFPDAYCNLAHCLQIVCDWTDYDERMKKLVSIVADQLEKNRLPSVHPHHSMLYPLSHGFRKAIAERHGNLCLDKINVLHKPPYEHPKDLKLSDGRLRVGYVSSDFGNHPTSHLMQSIPGMHNPDKFEVFCYALSPDDGTNFRVKVMAEANHFIDLSQIPCNGKAADRIHQDGIHILVNMNGYTKGARYELFALRPAPIQAMWLGYPGTSGALFMDYIITDQETSPAEVAEQYSEKLAYMPHTFFIGDHANMFPHLKKKAVIDFKSNGHIYDNRIVLNGIDLKAFLDSLPDVKIVKMKCPDGGDNADSSNTALNMPVIPMNTIAEAVIEMINRGQIQITINGFSISNGLATTQINNKAATGEEVPRTIIVTTRSQYGLPEDAIVYCNFNQLYKIDPSTLQMWANILKRVPNSVLWLLRFPAVGEPNIQQYAQNMGLPQNRIIFSPVAPKEEHVRRGQLADVCLDTPLCNGHTTGMDVLWAGTPMVTMPGETLASRVAASQLTCLGCLELIAKNRQEYEDIAVKLGTDLEYLKKVRGKVWKQRISSPLFNTKQYTMELERLYLQMWEHYAAGNKPDHMIKPVEVTE	11
